Results reported in the supplement of paper PMC10567573.
± gives the standard deviation.

Assay: protein stability index of a GFP-peptide fusion (GPS, HEK-293T) (PSI 1-6); higher = more stable
Conditions: c terminus: a fixed tail appended
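Further: 24-mer peptide tiles fused after GFP, lentivirally expressed, FACS-sorted into six equal bins by GFP/DsRed ratio, decoded by Illumina sequencing, PSI is the read-weighted mean bin number.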

Sequence | protein stability index (treatment: DMSO) | protein stability index (treatment: MLN4924 1 uM, 8 h)
YIIIVPLKKSRGKFIKPWESPDEM [PTPRD] | 2.5 ± 0.45 | 3.02 ± 1.5
LKKEPGHPWKWSNGKEFNNWFNVT [CD69] | 2.14 ± 0.13 | 2.23 ± 0.25
GTVPGQAPRLAVAVPAVTSADSQF [LYSMD4] | 4.46 ± 0.28 | 4.55 ± 0.17
LMSESEWRNLGVQQSQGWVHYMIH [CKS1B] | 2.42 ± 0.35 | 2.05 ± 0.31
AATGGATLAQTISEAAIGGAMLGQ [HDAC6] | 4.1 ± 0.57 | 4.11 ± 0.21
QFILRVSPDLEWHAACLKCAECSQ [ISL2] | 2.16 ± 0.34 | 2.19 ± 0.34
NQWETPPEDLQTDLAKLVDQQNPT [ZNF449] | 5.36 ± 0.21 | 5.29 ± 0.26
MYSVEITVEKDKVTGETRVLSSTT [PALM] | 2.93 ± 0.21 | 3.19 ± 0.16
LVGNKSDLRHLRAVPTDEARAFAE [RAB11A] | 4.29 ± 0.34 | 4.39 ± 0.21
EDGVWYSVAPMNVRRGLAGATTLG [KLHL12] | 3.17 ± 0.23 | 3.3 ± 0.17
FFSVIFMTVGILSNSLAIAILMKA [PTGFR] | 3.12 ± 0.26 | 2.75 ± 0.5
GRGVKKRLVLCMELANGKPQTRSG [ADAMTSL2] | 2.19 ± 0.56 | –
FCEELESMIQEQFKKGKNPTGLLA [ADD1] | 3.9 ± 0.2 | 3.81 ± 0.18
EILTKESNVQEVRCPVTVCGDVHG [PPP2CA] | 3.69 ± 0.57 | 3.79 ± 0.12
LKGYLYAVGGRNAAGELPTVECYN [KLHL13] | 2.37 ± 0.51 | 2.67 ± 0.34
PSRYAAIYNGGVEAVSTLLGAVAV [SLC19A2] | 2.28 ± 0.15 | 2.06 ± 0.37
GKWQQQGDLQDTKENREEARFQDK [CHGB] | 5.44 ± 0.36 | 5.33 ± 0.16
QVLRFYAIWDDTDSMYGECRTYII [EFHC1] | 2.91 ± 1 | 2.58 ± 0.47
RGKRGYSRGLHAWEISWPLEQRGT [SPSB2] | 2.88 ± 0.087 | 3.03 ± 0.41
IRRFLSAFHEPQVGLIQAAQQLLC [DFFB] | 2.18 ± 0.38 | 2.14 ± 0.17
TGEAGEELDLRLRLAQPSSPEVLT [RTN2] | 4.9 ± 0.41 | 5.01 ± 0.29
ELQNQLAACTRALESSEELLETAN [FSD1] | 4.24 ± 0.37 | 4.37 ± 0.39
PSHHPTDPVELRRLNFQTPGMASH [PTPRD] | 3.79 ± 0.13 | 3.94 ± 0.34

Sequence | protein stability index (treatment: DMSO) | protein stability index (treatment: MLN4924 1 uM, 8 h)
QRGHYRVARILIDLCSDVNVCSLL [RIPK4] | 2.9 ± 0.7 | 2.69 ± 0.28
GDPEEPLTGFSWRGGSDPETTGIQ [ATL3] | 5.13 ± 0.22 | 5.17 ± 0.12
HGGLYKPVQCHPSTGYCWCVLVDT [SMOC2] | 2.46 ± 0.86 | 2.39 ± 0.74
HDIDCQWVDITDVPPGDYLFQVVI [LOXL2] | 3.01 ± 0.2 | 2.92 ± 0.41
RSSSESKLPSSGSGKRLSGVSSVD [RIPK4] | 5.03 ± 0.19 | 5.07 ± 0.26
LRYTLWIPLYPLGCLAEAVSVIQS [HACD3] | 3.08 ± 0.49 | 3.11 ± 0.37
GRQPCGRFLRAYREGALRAALQRS [TRADD] | 2.56 ± 0.15 | 2.45 ± 0.4
VLQSVRELSRSRKLYGQRERVWAL [FCHSD1] | 2.06 ± 0.24 | 2.37 ± 0.25
GLSDRAKEAKEFLVQLRNMVQQIQ [TRIM9] | 2.17 ± 0.56 | 2.2 ± 0.23
EDERVVGKEQGQNLARQWNNCAFL [RAP1B] | 4.23 ± 0.23 | 4.09 ± 0.25
RYTQGTGGDEVDDSVSVNDIDLSL [ZC3H15] | 5.27 ± 0.29 | 4.89 ± 0.13
ATDMISIFEPPVRNSGIIGGKYLG [EFHC1] | 2.92 ± 0.25 | 3.16 ± 0.21
PRSGEQAEGSPGGPGDSQGRKRRQ [CDKN1A] | 5.56 ± 0.16 | 5.48 ± 0.27
ESFTVHFLPLNSAQTLHHKSCYNG [DNAAF3] | 2.4 ± 0.62 | 2.49 ± 0.42
QLIGSSNLFVMQVEMDIYTALKKW [GMCL1] | 2.57 ± 0.61 | 2.28 ± 0.81
DMKYGIYAVENEHMNRLQSQRAML [VTI1B] | 2.72 ± 0.25 | 2.93 ± 0.31
KVKKSGSRVMFLLVDKETDKRHVE [PDZK1] | – | 3.4 ± 0.19
AITRVSDRFSGETSAAALSPMSAA [SMTNL2] | 4.06 ± 0.15 | 3.63 ± 0.29
HGASPGLRDGGGLTPLELLLRQLG [ANKRD9] | 2.66 ± 0.15 | 2.76 ± 0.35
VELGKQKKKYMPYNHQHKYFFLIG [FADS1] | 2.29 ± 0.94 | 3.12 ± 0.48
KHSNKKVMRTKSSEKAANDDHSVR [CPXM2] | 5.13 ± 0.29 | 5.2 ± 0.22
NVPVDDSLVKELLRMCSHGEGKIN [EFHC1] | 3.39 ± 0.2 | 3.55 ± 0.11
